Laboratory results published in PMC3639042 (Molecular Biology of the Cell, 2013).

T1: Hof1-4E–3HA (budding yeast, UniProt Q05080 1-669, S313E | S421E | S533E | S563E)
T1 sequence (looked up): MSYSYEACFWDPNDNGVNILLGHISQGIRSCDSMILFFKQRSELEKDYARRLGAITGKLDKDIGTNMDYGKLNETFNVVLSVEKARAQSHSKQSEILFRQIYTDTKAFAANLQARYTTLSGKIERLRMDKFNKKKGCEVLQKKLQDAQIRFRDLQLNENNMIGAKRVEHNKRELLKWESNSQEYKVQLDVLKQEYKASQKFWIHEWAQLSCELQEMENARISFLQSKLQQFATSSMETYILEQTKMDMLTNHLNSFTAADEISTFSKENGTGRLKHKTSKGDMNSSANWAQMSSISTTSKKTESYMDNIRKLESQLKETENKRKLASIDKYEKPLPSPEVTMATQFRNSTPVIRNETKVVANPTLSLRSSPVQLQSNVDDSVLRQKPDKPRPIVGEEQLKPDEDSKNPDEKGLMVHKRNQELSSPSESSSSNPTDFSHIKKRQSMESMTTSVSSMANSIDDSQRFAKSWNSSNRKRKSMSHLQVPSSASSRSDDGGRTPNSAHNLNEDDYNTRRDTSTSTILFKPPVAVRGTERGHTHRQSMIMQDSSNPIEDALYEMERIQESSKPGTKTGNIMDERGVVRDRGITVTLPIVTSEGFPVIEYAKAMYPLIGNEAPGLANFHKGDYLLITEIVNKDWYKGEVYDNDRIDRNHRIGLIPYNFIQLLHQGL


Legend:
[1] = biological target: T1, Hof1-4E–3HA; assay: co-IP
[2] = biological target: septin complex (6His-Cdc12-Cdc3-Cdc10-Cdc11) (budding yeast, UniProt P32468 1-407; P32457 1-520; P25342 1-322; P32458 1-415); assay: pull-down
septin complex (6His-Cdc12-Cdc3-Cdc10-Cdc11), sequence (P32468 whole entry, chain 1 of 3): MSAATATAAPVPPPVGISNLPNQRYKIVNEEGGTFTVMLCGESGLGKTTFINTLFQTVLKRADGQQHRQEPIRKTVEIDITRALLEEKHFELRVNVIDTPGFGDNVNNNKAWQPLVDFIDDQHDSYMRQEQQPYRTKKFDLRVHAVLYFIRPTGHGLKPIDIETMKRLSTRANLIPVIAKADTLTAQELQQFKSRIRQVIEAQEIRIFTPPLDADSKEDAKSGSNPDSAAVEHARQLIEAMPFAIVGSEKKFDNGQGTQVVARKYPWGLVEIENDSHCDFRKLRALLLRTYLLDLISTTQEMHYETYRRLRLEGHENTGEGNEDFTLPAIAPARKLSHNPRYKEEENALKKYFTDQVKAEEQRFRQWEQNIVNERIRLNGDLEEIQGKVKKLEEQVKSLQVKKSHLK
septin complex (6His-Cdc12-Cdc3-Cdc10-Cdc11), sequence (P32457 whole entry, chain 2 of 3): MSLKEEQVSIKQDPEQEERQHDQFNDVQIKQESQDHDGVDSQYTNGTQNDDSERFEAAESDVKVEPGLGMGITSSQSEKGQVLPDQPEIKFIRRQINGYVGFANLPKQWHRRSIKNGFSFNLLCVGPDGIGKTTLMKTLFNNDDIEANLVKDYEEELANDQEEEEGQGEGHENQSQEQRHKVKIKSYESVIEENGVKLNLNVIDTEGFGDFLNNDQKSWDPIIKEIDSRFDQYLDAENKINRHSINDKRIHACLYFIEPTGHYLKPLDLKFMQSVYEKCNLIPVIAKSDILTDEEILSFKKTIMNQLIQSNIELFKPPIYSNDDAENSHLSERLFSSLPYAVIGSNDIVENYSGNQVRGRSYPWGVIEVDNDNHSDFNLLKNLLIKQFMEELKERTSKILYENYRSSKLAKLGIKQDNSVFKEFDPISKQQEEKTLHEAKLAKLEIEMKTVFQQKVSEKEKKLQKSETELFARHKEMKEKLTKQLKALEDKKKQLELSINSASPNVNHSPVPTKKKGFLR
septin complex (6His-Cdc12-Cdc3-Cdc10-Cdc11), sequence (P32458 whole entry, chain 4 of 3): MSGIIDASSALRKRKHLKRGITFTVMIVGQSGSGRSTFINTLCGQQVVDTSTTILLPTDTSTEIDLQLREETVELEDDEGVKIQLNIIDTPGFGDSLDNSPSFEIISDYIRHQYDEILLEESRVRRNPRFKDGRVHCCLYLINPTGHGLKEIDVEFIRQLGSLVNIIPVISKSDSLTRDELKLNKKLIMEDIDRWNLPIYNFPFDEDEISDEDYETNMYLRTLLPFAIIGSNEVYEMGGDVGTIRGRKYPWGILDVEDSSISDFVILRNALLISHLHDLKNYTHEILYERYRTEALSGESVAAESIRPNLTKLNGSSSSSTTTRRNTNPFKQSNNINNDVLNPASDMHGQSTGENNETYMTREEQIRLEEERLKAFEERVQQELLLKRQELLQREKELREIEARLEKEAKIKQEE

| fold less coimmunoprecipitated than with Hof1-3HA [1] | binding result [2] | Binder |
| --- | --- | --- |
| 2.5 fold |  | Cdc10-TAP (natural protein, budding yeast, UniProt P25342 1-322, looked up) MDPLSSVQPASYVGFDTITNQIEHRLLKKGFQFNIMVVGQSGLGKSTLINTLFASHLIDSATGDDISALPVTKTTEMKISTHTLVEDRVRLNINVIDTPGFGDFIDNSKAWEPIVKYIKEQHSQYLRKELTAQRERFITDTRVHAILYFLQPNGKELSRLDVEALKRLTEIANVIPVIGKSDTLTLDERTEFRELIQNEFEKYNFKIYPYDSEELTDEELELNRSVRSIIPFAVVGSENEIEINGETFRGRKTRWSAINVEDINQCDFVYLREFLIRTHLQDLIETTSYIHYEGFRARQLIALKENANSRSSAHMSSNAIQR |
|  | binds | GST-HOF1-SID (aa 200–355) (domain or fragment, budding yeast, UniProt Q05080 200-355, looked up) KFWIHEWAQLSCELQEMENARISFLQSKLQQFATSSMETYILEQTKMDMLTNHLNSFTAADEISTFSKENGTGRLKHKTSKGDMNSSANWAQMSSISTTSKKTESYMDNIRKLSSQLKETENKRKLASIDKYEKPLPSPEVTMATQFRNSTPVIRN |
